Legend:
Assay in all cases: cell-based or functional assay
GLP-1 receptor (GLP-1R) = target: GLP-1 receptor (GLP-1R)
GCG receptor (GCGR) = target: GCG receptor (GCGR)
GIP receptor (GIPR) = target: T1, GIP receptor (GIPR)
T1 sequence (P48546 whole entry, species assumed, looked up): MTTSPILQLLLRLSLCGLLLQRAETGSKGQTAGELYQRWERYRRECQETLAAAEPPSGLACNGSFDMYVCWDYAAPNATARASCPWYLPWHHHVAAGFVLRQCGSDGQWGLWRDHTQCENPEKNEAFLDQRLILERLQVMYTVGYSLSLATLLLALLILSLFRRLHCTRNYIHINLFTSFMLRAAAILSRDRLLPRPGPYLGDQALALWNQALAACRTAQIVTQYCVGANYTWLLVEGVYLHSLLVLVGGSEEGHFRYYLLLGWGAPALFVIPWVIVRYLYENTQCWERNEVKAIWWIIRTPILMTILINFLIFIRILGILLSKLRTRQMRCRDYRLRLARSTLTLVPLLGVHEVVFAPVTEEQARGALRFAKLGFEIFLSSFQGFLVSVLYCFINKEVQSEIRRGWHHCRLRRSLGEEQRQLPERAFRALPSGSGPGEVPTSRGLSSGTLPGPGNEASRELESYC

Substance	GLP-1 EC50 (nM), cAMP assay on HEK293 cells with GLP-1R (GLP-1 receptor (GLP-1R)) [nM]	GCG EC50 (nM), cAMP assay on HEK293 cells with GCGR (GCG receptor (GCGR)) [nM]	GIP-1 EC50 (nM), cAMP assay on CHO cells with GIPR (GIP receptor (GIPR)) [nM]
Human GLP-1 (7-37) (from UniProt P01275 21-180) (ligand)	0.001		
Human Glucagon (from UniProt P01275 53-81) (ligand)		0.001	
LY3437943 (peptide)	0.014	0.031	0.001
